These results are taken from patent US20240124560A1.

One assay concerns the target 2F5-specific peptide. The experiment in a line: ELISA on peptide MPER (659-671), antibody titrated. (In an ELISA, binding on a coated surface is turned into a signal by an enzyme label.)
In assay [1] the target is HIV-1 Env of isolate COT6 (wild-type) (HIV-1). Description: cell-based or functional assay.
Assay [2] has as its target HIV-1 Env of isolate COT6, mutant D674E (HIV-1). Description: cell-based or functional assay.
In assay [3] the target is HIV-1 Env of isolate COT6, mutant D674T (HIV-1). Description: cell-based or functional assay.

2F5 (antibody) yielded an EC50 (read off the curve) with 2F5-specific peptide of 6 ng/mL.
10E8 (antibody) showed a Fold increase in IC50 (wild-type COT6, the reference) in assay [1] of 1 fold. The Fold increase in IC50 relative to wild-type COT6 in assay [2] was 17.5 fold; in assay [3], 36 fold.

The term EC50 (read off the curve) denotes the concentration that produces a half-maximal response. A higher EC50 (read off the curve) goes with lower potency in that assay.
